The test has as its target Recombinant truncated NA protein from the A/Perth/16/2009 H3N2 strain of influenza virus (influenza A virus A/Perth/16/2009 (H3N2)). The experiment in a line: SEC.

A word on the stoichiometry N: it is a count of units in the complex or per binding partner.

Take “Recombinant truncated NA protein from the A/Perth/16/2009 H3N2 strain of influenza virus (enzyme)”: the stoichiometry N worked out at 4.
